In patent US20200172617A1:

Key:
[1] = target: LAG-3 (as used in the Biacore assay) (UniProt P18627); experiment: Biacore (SPR); format not described
[2] = target: LAG-3 (in the in vitro cell-based assays) (UniProt P18627); experiment: in vitro cell-based assays; format not described
soluble LAG-3 (human) = soluble LAG-3 (human) (UniProt P18627); experiment: population PK/PD target-mediated drug disposition model (quasi-equilibrium) fitted to antibody and total soluble LAG-3 concentrations in patient serum; model estimate

Kd [1]: 0.1 nM
Kd [2]: 1.9 to 2.3 nM
Kd (soluble LAG-3 (human)): 1.5 nM
B1: LAG525 (antibody, INN chains, looked up, V domains shown)
VH: QVQLVQSGAEVKKPGASVKVSCKASGFTLTNYGMNWVRQARGQRLEWIGWINTDTGEPTYADDFKGRFVFSLDTSVSTAYLQISSLKAEDTAVYYCARNPPYYYGTNNAEAMDYWGQGTTVTVSS
VL: DIQMTQSPSSLSASVGDRVTITCSSSQDISNYLNWYLQKPGQSPQLLIYYTSTLHLGVPSRFSGSGSGTEFTLTISSLQPDDFATYYCQQYYNLPWTFGQGTKVEIK
